Test results from article PMC7276988, “Cryo-EM Structure of the Fork Protection Complex Bound to CMG at a Replication Fork” (Molecular Cell, 2020).
Values belong to the molecule of their own block, whether it stands above or below them.

How the values were obtained:
[1] = biological target: replisome assembled in vitro on origin DNA (CMG-containing) (S. cerevisiae) (UniProt P29469)
[2] = biological target: T1, Cdc45-MCM-GINS (CMG) helicase (S. cerevisiae, UniProt P29469 1-868; P24279 1-971; P30665 1-933; P29496 1-775; P53091 1-1017; P38132 …); assay: co-sedimentation; 10-30% glycerol gradient without cross-linker; 0.5 μM CMG with 1.5 molar excess of fork DNA, Csm3/Tof1 (or mutant), Ctf4 and Mrc1; 500 μM AMP-PNP, 3 mM Mg(OAc)2, 150 mM NaOAc, pH 7.5; 200,000g, 4°C, 2 h; silver-stained SDS-PAGE of fractions; conditions: both partners purified
T1 construct: Mcm2, S. cerevisiae, subunit of MCM in CMG; Mcm3, S. cerevisiae, subunit of MCM in CMG; Mcm4, S. cerevisiae, subunit of MCM in CMG; Mcm5, S. cerevisiae, subunit of MCM in CMG; Mcm6, S. cerevisiae, subunit of MCM in CMG; Mcm7, S. cerevisiae, subunit of MCM in CMG; Cdc45, S. cerevisiae, subunit of CMG; Psf1, S. cerevisiae, subunit of GINS in CMG; Psf2, S. cerevisiae, subunit of GINS in CMG; Psf3, …

[3] = biological target: T2, Cdc45 (S. cerevisiae, UniProt Q08032 1-650); assay: cryo-EM structure; reconstituted from purified CMG, fork DNA, Csm3/Tof1, Ctf4, Mrc1 with AMP-PNP; glycerol gradient fixation (glutaraldehyde and BS3); conditions: both partners purified
T2 construct: Cdc45, S. cerevisiae, subunit of CMG; source: S. cerevisiae, overexpressed, purified as part of CMG; in XL-MS part of the co-expressed, co-purified complex (yJY74)
T2 sequence: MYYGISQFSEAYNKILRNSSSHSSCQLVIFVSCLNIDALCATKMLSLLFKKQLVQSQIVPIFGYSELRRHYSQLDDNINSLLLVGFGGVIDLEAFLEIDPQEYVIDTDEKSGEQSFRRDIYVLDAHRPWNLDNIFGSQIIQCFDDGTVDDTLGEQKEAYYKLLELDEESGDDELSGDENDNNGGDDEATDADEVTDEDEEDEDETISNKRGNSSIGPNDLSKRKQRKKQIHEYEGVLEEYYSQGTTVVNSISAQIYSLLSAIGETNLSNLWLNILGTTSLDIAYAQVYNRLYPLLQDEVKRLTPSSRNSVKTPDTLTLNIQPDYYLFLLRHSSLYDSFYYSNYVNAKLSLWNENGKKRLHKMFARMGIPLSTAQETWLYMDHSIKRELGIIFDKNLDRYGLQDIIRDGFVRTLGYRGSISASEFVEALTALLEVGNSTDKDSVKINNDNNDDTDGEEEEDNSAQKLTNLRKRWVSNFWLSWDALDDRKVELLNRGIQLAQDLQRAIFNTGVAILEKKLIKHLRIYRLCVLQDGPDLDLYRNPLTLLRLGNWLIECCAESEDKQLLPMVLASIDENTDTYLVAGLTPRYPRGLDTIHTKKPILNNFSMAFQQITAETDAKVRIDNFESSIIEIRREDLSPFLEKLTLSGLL

Sequence of replisome assembled in vitro on origin DNA (CMG-containing) (S. cerevisiae) (P29469 whole entry, looked up): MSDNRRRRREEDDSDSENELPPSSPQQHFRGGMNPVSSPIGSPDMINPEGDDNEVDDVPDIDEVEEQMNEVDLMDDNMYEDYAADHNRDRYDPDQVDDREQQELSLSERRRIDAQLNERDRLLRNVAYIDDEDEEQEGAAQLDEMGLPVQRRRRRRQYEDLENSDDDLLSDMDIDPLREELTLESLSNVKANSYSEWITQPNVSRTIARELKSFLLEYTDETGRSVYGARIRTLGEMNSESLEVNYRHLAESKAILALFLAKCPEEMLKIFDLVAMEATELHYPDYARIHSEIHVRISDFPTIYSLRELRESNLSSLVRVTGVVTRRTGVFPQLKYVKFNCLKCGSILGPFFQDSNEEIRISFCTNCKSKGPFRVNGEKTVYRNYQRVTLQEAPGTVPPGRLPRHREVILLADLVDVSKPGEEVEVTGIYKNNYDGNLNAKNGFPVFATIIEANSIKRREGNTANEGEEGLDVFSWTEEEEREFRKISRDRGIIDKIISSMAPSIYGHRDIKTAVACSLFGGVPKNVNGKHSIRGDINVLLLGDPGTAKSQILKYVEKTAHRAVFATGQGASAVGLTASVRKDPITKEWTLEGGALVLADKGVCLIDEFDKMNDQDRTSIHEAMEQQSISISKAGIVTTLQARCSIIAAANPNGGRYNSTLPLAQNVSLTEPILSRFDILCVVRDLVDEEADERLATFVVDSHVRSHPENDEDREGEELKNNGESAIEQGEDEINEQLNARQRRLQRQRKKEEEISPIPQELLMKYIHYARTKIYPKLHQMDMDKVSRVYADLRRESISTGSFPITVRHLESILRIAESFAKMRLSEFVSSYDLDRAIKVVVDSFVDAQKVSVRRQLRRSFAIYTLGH

- concentration of Csm3/Tof1 that saturates origin-dependent replication (Figure S10H) [1]: 10 nM
Molecule: Csm3/Tof1 heterodimer (from UniProt Q04659 1-317; P53840 1-1238) (complex)

- stoichiometry N [2]: ~1 Mrc1 per complex
B1: Mrc1 (natural protein, S. cerevisiae, UniProt P25588 1-1096, looked up)
chain: MDDALHALSSLTAKKRTTTYKKVAVPILDENDNTNGNGPNDIDNPPELTGNGFLFANATLNRVKNRLEGKKAPEQNHNNGKDRSENSLPTQLISNLYDGGEELEKSEVKDNSYSEKNVSSSFTQTQRIPVSIQQDKVFNVPIHSVNDGKPTQLIKEDGLVNETSQALKTPLTTGRPGATQRIDSSGATSQTQPIKSIEPQSQIITTSSNHSNALSPKIPIIPTELIGTSPLFQSIQNRGPDTQMDVPPQTAHDEDKTQAIGIPQATHQEQKTQIDTVAQTLQDEVPHTLKIREIQSELASEDSKREKARNVEYKKPQKPIPTKKFFSKESFLADFDDSSSNEDDDIKLENAHPKPVQNDDELHENKSVELNLTDETRINEKRVPLLSSYANNLKREIDSSKCITLDLDSDSDEYGDDDMDSIKLSKDESVLPISQLSKATILNLKARLSKQNQKLSQRPNKSKDPKVDHNVLLNTLRKASRKQILDHQKEVIETKGLKLEDMAKEKEIVENLLEQEILRNKRIRQKEKRREKLEENDFQLNAHDSGSDSGSESSGFALSGNEIADYESSGSENDNRRESDSEKEDDEIILKQKKSHHVKHIINESDSDTEVEAKPKEKADESLPKRIAINLGHYGDNIGEDTDKFQETNVLDTQNIEEVMAERNTIENEVKDDVYVNEEADEAIRRQLIDKEKLQLKQKEKEHEAKIKELKKRGVTNFFEMEAEESEDEWHGIGGADGEGSDDYDSDLEKMIDDYSKNNFNPHEIREMLAAENKEMDIKMINKILYDIKNGGFRNKRAKNSLELELSDDDEDDVLQQYRLKRRELMRKRRLEIGDDAKLVKNPKSSAFFESMVEDIIEYKNPFGAEEEYNLDITSTATDLDTQDNSINVGDNTGNNEQKPVDQKNKKVIISEDFVQKSLSFLKSNNYEDFETDKELSRIQHGNDEAIEDLYTLKQNSSIKSFTNSQTDSTTSKTVNTIIDLEKRPEDEDEVENGDTSLVGVFKHPSIIKSFASRTDINDKFKEGNKTVKILKSYKTVGSSKASITYMGKTRKLIAPKRKTEGSHRYHHDHHNKKMKMKTKTKSNKLFESGQDSFDN
notes: Mrc1, S. cerevisiae; printed as a 125 kDa protein; The FLAG purification is told for the separately purified protein; source: S. cerevisiae, overexpressed at 20°C, purified (anti-FLAG M2, Superose 6)

- binding result [2]: binds
B2: Csm3^(K47A, R48A, R49A, Q51A, K53A)/Tof1^(K400A, R401A, K404A) (complex, S. cerevisiae)
chain 1: MDQDFDSLLLGFNDSDSVQKDPTVPNGLDGSVVDPTIADPTAITARAAAPAVALTAEKLLSDKGLPYVLKNAHKRIRISSKKNSYDNLSNIIQFYQLWAHELFPKAKFKDFMKICQTVGKTDPVLREYRVSLFRDEMGMSFDVGTRETGQDLERQSPMVEEHVTSAEERPIVADSFAQDKRNVNNVDYDNDEDDDIYHLSYRNRRGRVLDERGNNETVLNNVVPPKEDLDALLKTFRVQGPVGLEENEKKLLLGWLDAHRKMEKGSMTEEDVQLIQSLEEWEMNDIEGQHTHYDLLPGGDEFGVDQDELDAMKEMGF
chain 2: MSADLQQGTTNAADFSLTVLRARIALLATAIGGPDYTSQIDPPPYKLGDDCLACLKDLKRWFKLVDDQQKRWDVAMAVAEYRILTDDLLPILIDWENKCSLAAKLAKNNPDHEEFRNKAYYDKIALNCLQLLVLMTWPLIVTEQSSSNQITLYGELKKHQLVYKKTILSMESGKVLRAAIRLALDVIKIDRLSRTPRDNMVLKLVLNFFRNVIAIEPGEFTINTKKSMPKKGITSIDTLPPNVSMDDISLNTVISSFHKNKVFGFLLTLTSSLSKEFDQDFINIPLLEIMFYFTKDVNQELLFPRQFETGTHSKVVNKNESSSANNIVTSAGFELSKLLQKEHQMRKNVIKHTSARHSRFGGLLSIQTPDKTRLTVSGSQALVDEKIALQKLDDSKKWNAAIIAKHQSVAAEGLPNSLLNSQTGKAIFFTESNGKHFKEFINNFIDSGFNILLHSVTNYFTTEQDRMVTLEQVEYLLFFAWFVKYQLLRSKIDNSADIKQVSEALKEVTFILVSSLLRSAYDLKNWTVTHAGMIAFNELLNLVSRTKAAQEEDSTDIEFIVSRLFSDERIQLLSNLPKIGSKYSLQFMKSCIELTHSVLKVLEQYSDDKTLVIEGKSRRQKKFNISEGDITKLIEEENVDRDEALDILTSSLRSIEVNFQKVQANYMTEPVIETYINFLERFRELEDDSIKKVFSFFHRVFVQAKEQALLFRFDLIILLREMLSPDGLDRMSRSRKYVSQFSDYFLARLKKRLKKSPAWFVGLLFPPLHNSEVGFYQRYGEYNVLNNESMYAAPASQFKPIPDEEALPPSILLDMKYGVLVSTLLDDGKTELLDQLLKHITHTLDIFKSWLTVNVNAGKETVNPPNEYFTLTGVLNNDPIFKDKDYRALLLLIGYSIPRKINEPCFLPGTVEVSDLTVSCELVKKYLSTPFETPNGLPSSSYLLRVRSEKDSFSHNEQDGWEGDDDYDYNDPYIVPDDQILSKSDAAYFKDLDNNASDKLKGTKFSKGIARSKKKDKRKRRKGEAKTNLPMFGDQDDERPQTVRERHGVFSKEFISDSEDDEDLMNPIFFENETYMRWLLDKNNGQLTEDRYIQFAKFAAERMNNGGVVTGDYTSLFGGSIPSIESIRATESSSFAPDKSLISLASHVASEMSIFDVNNNNNNQLSDDDVNSESRNSLGSSQPSNSQNMFQSEVYSRKESTKRSLEASAADESDEDEEAIRLFGKKSRVVLSQGDSDD
notes: also called Csm3-5A/Tof1-3A; source: S. cerevisiae, overexpressed, purified as a heterodimer

- binding result [3]: binds
B3: Psf2 (natural protein, S. cerevisiae)
chain: MSLPAHLQQTFSPEEIQFIVENEPIKIFPRITTRQKIRGDDRGTGNHTRWQLITTDDKALNNMVAMRSTEVVLWIALLLKQQSKCSIVAPQWLTTKELDRKIQYEKTHPDRFSELPWNWLVLARILFNKAKDDFHDPIHELRGKIQDLREIRQIKVLKGLKYLNESHLQLDNLSLLEINELRPFITEIMDKLREIHTASLTAGTENDEEEFNI
notes: also called GINS subunit Psf2; source: S. cerevisiae, overexpressed, purified as part of CMG
